This is an account of results in publication PMC2760644.

In this experiment the target is F-actin (chicken) (UniProt P68139). Kind of experiment: co-sedimentation.

pKd: −log10 of the molar value.

What is called pKd is the Kd on a negative log10 scale, so that one unit is a factor of ten. Low values mean a high Kd, high ones a low Kd. The substance “supervillin headpiece L38K point mutant (domain or fragment)” showed a negative-log Kd (pKd) of 4.06.
